Consider two molecules from patent publication US20220127355A1 (INTEGRAL MOLECULAR, published 2022).

Broadly, the EC50 (read off the curve) is the concentration that produces a half-maximal response. A low value points to an effect from little substance. Broadly, the Kd is the free concentration of one partner at which half of the binding sites on the other are occupied at equilibrium, for simple one-to-one binding.

Assay [1] deals with T1, Claudin 9 (UniProt O95484 1-217).
T1 construct: Octet KD values: intact claudin protein embedded in virus-like particles (lipoparticles); also called CLDN9
T1 sequence (looked up): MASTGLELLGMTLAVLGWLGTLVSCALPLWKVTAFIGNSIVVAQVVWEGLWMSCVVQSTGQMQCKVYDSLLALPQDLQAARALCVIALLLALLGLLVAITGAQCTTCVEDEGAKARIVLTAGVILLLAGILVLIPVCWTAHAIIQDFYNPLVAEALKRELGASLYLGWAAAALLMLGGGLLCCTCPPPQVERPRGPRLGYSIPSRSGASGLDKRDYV
Put plainly: flow cytometry, HEK-293T cells transiently transfected with the indicated claudin; pUC19 = empty vector control. On the procedure: (§1) FIG. 2 illustrates the results of a binding assay showing that Claudin 6 MAbs bind to human Claudin 6 preferentially over other Claudin proteins. Human embryonic kidney 293T (HEK-293T) cells were transiently transfected with DNA for the indicated Claudin protein or empty vector along with GFP (pUC) for 22 hours.

The target of another assay is T2, Claudin 6 (human) (human, UniProt P56747 1-220).
T2 construct: Expressed on transfected HEK-293T cells or naturally on PA-1 cells for flow cytometry; For the Octet KD values it was the intact protein embedded in virus-like particles (lipoparticles); also called hsCLDN6; CLDN6
T2 chain: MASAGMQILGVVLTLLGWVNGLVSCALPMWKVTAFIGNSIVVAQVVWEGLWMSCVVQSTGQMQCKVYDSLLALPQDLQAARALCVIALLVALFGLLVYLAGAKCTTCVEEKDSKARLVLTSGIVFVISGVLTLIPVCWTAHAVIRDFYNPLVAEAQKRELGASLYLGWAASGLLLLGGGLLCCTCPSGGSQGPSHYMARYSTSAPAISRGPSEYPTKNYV
Put plainly: flow cytometry, PA-1 cells naturally expressing Claudin-6. Background: A flow cytometer gives signals particle by particle.

For assay [2], the target named is T1, Claudin 9. Put plainly: biosensor (Forte Octet), intact claudin in virus-like particles (lipoparticles). On the procedure: Affinity of various antibodies against CLDN6 as compared to CLDN9, CLDN3, and CLDN4 was measured using a biosensor. Biosensor affinity measurement of the various antibodies against the proteins was determined using a Forte Octet, which was used for biosensor measurements, using intact claudin proteins embedded in virus-like particles (lipoparticles). The KD for different antibodies is shown below.
(In BLI a coated tip is dipped into the sample, and binding shifts an interference pattern.)

For another assay, the target named is T3, Claudin 4 (UniProt O14493 1-209).
T3 construct: also called CLDN4
T3 sequence (looked up): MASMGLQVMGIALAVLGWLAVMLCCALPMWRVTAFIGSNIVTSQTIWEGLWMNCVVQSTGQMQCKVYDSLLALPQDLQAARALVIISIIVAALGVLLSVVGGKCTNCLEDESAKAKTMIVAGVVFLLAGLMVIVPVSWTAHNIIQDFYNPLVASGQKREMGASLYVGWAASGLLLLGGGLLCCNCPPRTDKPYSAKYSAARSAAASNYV
Put plainly: flow cytometry, HEK-293T cells transiently transfected with the indicated claudin; pUC19 = empty vector control. On the procedure:
as §1

B1: IM173 (antibody, V domains shown)
VH: AVTLDESGGGLQTPGGALSLVCKASGFTFSSYSMFWVRRAPGKGLEWVAGIDSGSTTFYGSAVKGRATISRDNGQSTVRLQLNNLRAEDTATYYCAKDAYGYCGWSGCSADSIDAWGHGTEVIVSS
VL: ALTQPSSVSANPGGTVEITCSGGNNYYGWYQQKSPGSAPVTVIYYNDKRPSDIPSRFSGSKSGSTGTLTITGVQADDEAVYFCGGWDSSGGIFGAGTTLTVL
notes: Detected with anti-human IgG Fc secondary
As to B1, in the assay with Claudin 9 [1], the binding result is “no binding (tested: log [mAb] about -7.2 M)”.

B2: IM171 (antibody, V domains shown)
VH: AVTLDESGGGLQTPGGALSLVCKASGFDFSSYAMNWVRQAPGKGLEWVAGIGSTGSSTGYGPAVKGRATISRDNGQSTLRLQLNNLRAEDTAIYYCAKSVGNGNSWSGYIATSIDAWGHGTEVIVSS
VL: ALTQPSSVSANLGGTVKLTCSGGSSGYGWYQQKSPGSAPVTVIYSNDKRPSDIPSRFSGSLSGSTGTLTITGVQADDEAVYFCGSTDNSYVGIFGAGTTLTVL
notes: Detected with anti-human IgG Fc secondary; also called LM171
On to B2, for which, in the assay with Claudin 6 (human), the concentration for a half-maximal effect (EC50 (read off the curve)) is roughly 2 µg/mL. Also, the dissociation constant (Kd) with Claudin 9 [2] turned out to be 902 nM. In addition, the binding result with Claudin 4 was “no binding (tested: log [mAb] about -7.2 M)”.
